The record followed here is the supplement of paper PMC9170038.

This data set relates to MS2 coat protein. In words: apparent KD of MS2 coat protein; designed switch direction (-1 OFF switch, 1 ON switch): -1; higher = weaker reporter binding. Put shortly: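 Three titration conditions were used: no input, 200 uM small-molecule ligand, and an oligonucleotide input. In each, SNAP-549-labelled MS2 coat protein was raised from 0.7 or 1.5 nM, doubling, to 3 µM over designed RNA switches transcribed on Illumina chips by stalled E. coli RNA polymerase. Curve fits of normalised cluster fluorescence gave values whose per-design median over clusters is the apparent KD.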

Where [1] appears, read: Eterna round: R95, input ligand: microRNA oligo, concentration not stated.
The mark [2] stands for this setting: input ligand: microRNA oligo, concentration not stated.
[3] abbreviates: Eterna round: R95, input ligand: FMN 200 uM.
Where [4] appears, read: Eterna round: R95, input ligand: none.

For “GUCAUGUUAGGAUAUCAAACAUGUGACUUCGGUCACUGUCCUGAGAAGGAACAUGAGGAUCACCCAUGUUGGAC [Ex4-3: 57] (puzzle: Exclusion 4)”, the “apparent KD of MS2 coat protein” value under setting [1] worked out at 16.2 nM.
As for “GUCCGACAUGAGGAUCACCCAUGUGAGGAUAUACGAUUAGCUGCUAGGUAGUUAGUAUGUAGAAGGUGCAUGAA [EX1 #74] (Eterna round: R97, puzzle: Exclusion 1)”, the “apparent KD of MS2 coat protein” value (input ligand: FMN 200 uM) amounted to 30.1 nM and the “apparent KD of MS2 coat protein” value (input ligand: none) turned out to be 17.5 nM.
Turning to “GUCCUCUUGACAUGAGGAUCACCCAUGUUUUAUUUGUUAACUGAGGAUAUACUCUUAUUUUUUAUGUAGAAGGCAGUUUUGUUC [JR_ExcNG3_Sub023] (Eterna round: R96, puzzle: Exclusion NG 3)”, the “apparent KD of MS2 coat protein” value is, setting by setting: (input ligand: FMN 200 uM) 82.6 nM; under setting [2], 22 nM; (input ligand: none) 26.3 nM.
As for “GUCGUGCAGCUUUGCUGUACGAGUACAUGAGGAUCACCCAUGUAGGAUAUGGUACGCUUUGCGUGCUAGAAGGAUAUGUGUAGC [salish99_ExNG3_r04_503] (Eterna round: R96, puzzle: Exclusion NG 3)”, the “apparent KD of MS2 coat protein” value is, setting by setting: (input ligand: FMN 200 uM) 44.8 nM; under setting [2], 29 nM; (input ligand: none) 37.1 nM.
For “GUCGUGCGGCUUUGCUGUACGAGUACAUGAGGAUCACCCAUGUAGGAUAUGGUUCGUUUUGCGUGCUAGAAGGGCGUGCGUUUU [Excl-NG3-LRO16] (Eterna round: R96, puzzle: Exclusion NG 3)”, in that order: 22.4 nM, 17.3 nM and 22.1 nM.
Take “GUCUCGUCAGGAUAUGACGCUACAUUUUCUUUUUAGAAGAGUCAGAAGGGACAUGAGGAUCACCCAUGUGAUUC [Ex4 - 3 - 3] (puzzle: Exclusion 4)”: the “apparent KD of MS2 coat protein” value under setting [1] was 310 nM.
For the sequence “GUGAGAUAGUUAGUGGCCGACAUGAGGAUCACCCAUGUGAGGGAAAUGUUGAGGCGAAAGCUUUUUGCUCGUCUUUA [JR_SV3TOV1_Sub037] (puzzle: Sensor v3, turn-off variant 1)”, the “apparent KD of MS2 coat protein” value is, setting by setting: under setting [3], 30 nM; under setting [1], 139 nM; under setting [4], 34.8 nM.
“GUGCAGGUAGGAUAUCCACCGGCAAACAUGAGGAUCACCCAUGUGACGCUCCCUUGUCUUGGAGAAGGGCCGGCAU [Xetemaaren] (puzzle: Exclusion 5)”: the “apparent KD of MS2 coat protein” value under setting [1] was 25.2 nM.
For “GUGCGGUGAGGAUAUACGUAGGUGAAAAUCUGUGUGCUCCUACAUGAGGAUCACCCAUGUAGAAGGCAUGUCAC [LRO-Excl2-15] (puzzle: Exclusion 2)”, under setting [1], the “apparent KD of MS2 coat protein” value amounted to 14.7 nM.
“GUGGUGACAGGAUAUACAUGAGGAUCACCCAUGUGAGGAGGACGAGACAGGUGAAGGAGUAGAAGGGUCAGAGG [JR_Exclu3_Sub027] (puzzle: Exclusion 3)”: the “apparent KD of MS2 coat protein” value by setting is: under setting [3], 66.7 nM; under setting [1], 74.5 nM; under setting [4], 60.3 nM.
In the case of “GUGUAAGGAGGAUAUACAUGAGGAUCACCCAUGUGAAUAAGAUAGAAUAAGAUAAAGUGUAGAAGGCUUAGUGU [Excluse me!!! 25 - Jieux - Exclusion 3] (puzzle: Exclusion 3)”, the “apparent KD of MS2 coat protein” value under setting [3] was found to be 39 nM, the “apparent KD of MS2 coat protein” value under setting [1] is 38.6 nM and the “apparent KD of MS2 coat protein” value under setting [4] amounted to 44.7 nM.
In the case of “GUGUACGAAGGAUAUACAUGAGGAUCACCCAUGUGAAUAAGAUAGAAUAAGAUAAAGUGUAGAAGGUCGAGUGU [Excluse me!!! 7 - Jieux - Exclusion 3] (puzzle: Exclusion 3)”, the “apparent KD of MS2 coat protein” value under setting [1] was 27.1 nM.
The same measure, in the same setting: with “GUGUACGGAGGAUAUAUGUGGGCAGCAUACGCUGCAGCUUCACAUGAGGAUCACCCAUGUAGAAGGCUGUGCAC [JL-ex2-2.11 Brourd mod] (puzzle: Exclusion 2)” the figure was 20.1 nM.
Regarding “GUGUAGCAAGGAUAUACAUGAGGAUCACCCAUGUGAAUAAGAUAGAAUAAGAUAAAGUGUAGAAGGUGCAGUGU [Excluse me!!! 8 - Jieux - Exclusion 3] (Eterna round: R96, puzzle: Exclusion 3)”, the “apparent KD of MS2 coat protein” value was found to be 44.9 nM (input ligand: FMN 200 uM), 31.5 nM under setting [2] and 41.6 nM (input ligand: none).
In the case of “GUGUAGCAAGGAUAUACAUGAGGAUCACCCAUGUGAAUAAGAUAGAAUAAGAUAAAGUGUAGAAGGUGCAGUGU [Excluse me!!! 8 - Jieux - Exclusion 3] (puzzle: Exclusion 3)”, under setting [1], the “apparent KD of MS2 coat protein” value came out at 36.6 nM.
On the same count and under the same terms, the value for “GUGUAGUCAGGAUAUACAGAGGAAGAUAAUACAAUAUAAGUACAUGAGGAUCACCCAUGUAGAAGGGACAGUGU [Excluse me!! 10 - Jieux - Exclusion 2] (puzzle: Exclusion 2)” was 25.7 nM.
For “GUGUGCAGAGGAUAUACAUAGGAAAAUAAAAGAGAAGUGGGACAUGAGGAUCACCCAUGUAGAAGGCUGAGUGU [Excluse me!! 22 - Jieux - Exclusion 2] (puzzle: Exclusion 2)”, the “apparent KD of MS2 coat protein” value worked out at 89.9 nM under setting [3], 73.7 nM under setting [1] and 72.8 nM under setting [4].
On to “GUGUGUGAUGUAGGAUAUACGAGACAUGAGGAUCACCCAUGUGAGGGAAGGAGAAGGAGAAGAGAGUAGAAGGAUAGAGUGUGA [Default title] (Eterna round: R96, puzzle: Exclusion NG 2)”, for which the “apparent KD of MS2 coat protein” value is, setting by setting: (input ligand: FMN 200 uM) 133 nM; under setting [2], 144 nM; (input ligand: none) 131 nM.
As for “GUUAAACAUGAGGAUCACCCAUGUAAGGAUAUGCUGAGGUCGCGCUGACGUGAAUGAAGCAGAAGGUACAAAUG [Mat - Mod of JL D63] (puzzle: Exclusion 1)”, the “apparent KD of MS2 coat protein” value under setting [3] worked out at 79.5 nM, the “apparent KD of MS2 coat protein” value under setting [1] was 76.7 nM and the “apparent KD of MS2 coat protein” value under setting [4] worked out at 60.8 nM.
In the case of “GUUAAACAUGAGGAUCACCCAUGUAAGGAUAUGCUGCGGUCGCGAUGACGUGACUGCAGCAGAAGGUACAAAUG [Mat - Mod of JL D58] (puzzle: Exclusion 1)”, under setting [1], the “apparent KD of MS2 coat protein” value was 69.7 nM.
On to “GUUAACGCAGGAUAUUAGUACUUUUACAUGAGGAUCACCCAUGUUAAUUGGGUCUAAGAAUAAGAAGGGCGAUGAA [JR_Ex5_Sub009] (Eterna round: R97, puzzle: Exclusion 5)”, for which the “apparent KD of MS2 coat protein” value (input ligand: FMN 200 uM) turned out to be 48.3 nM and the “apparent KD of MS2 coat protein” value (input ligand: none) amounted to 42.8 nM.
Turning to “GUUAAGGUAGGAUAUACGAUAAUAUAGGGUAGAAUUAUAACACAUGAGGAUCACCCAUGUAGAAGGACCAAUUG [Mat - Exclusion 2 - Mod of my Tesla design - D52] (puzzle: Exclusion 2)”, the “apparent KD of MS2 coat protein” value under setting [1] amounted to 25.8 nM.
Take “GUUAGACAUGAGGAUCACCCAUGUGAGGAUAUGAUGCGAUCGUGAUGAAAUGAUCGCAUCAGAAGGCACAUAUG [Mat - Mod of JL D67] (puzzle: Exclusion 1)”: the “apparent KD of MS2 coat protein” value under setting [1] amounted to 123 nM.
In the case of “GUUAUCGCAGGAUAUUAAUACUUGUACAUGAGGAUCACCCAUGUUUAUUGGGAUUAAGAAUAAGAAGGGCGAUGAA [JR_Ex5_Sub003] (Eterna round: R97, puzzle: Exclusion 5)”, the “apparent KD of MS2 coat protein” value (input ligand: FMN 200 uM) came out at 52.8 nM and the “apparent KD of MS2 coat protein” value (input ligand: none) came out at 27.8 nM.
For “GUUAUCGCAGGAUAUUAGUACUUGUACAUGAGGAUCACCCAUGUUUAUUGGGUCUAAGAAUAAGAAGGGCGAUGAA [JR_Ex5_Sub005] (Eterna round: R97, puzzle: Exclusion 5)”, in that order: 105 nM and 32 nM.
